From patent US20210179727A1 (LYVGEN BIOPHARMA, published 2021)

B1: LYV379 (chimeric antibody, 17C5C2 in human IgG4SP / human kappa) (antibody, V domains shown)
VH: EVHILETGGGLVKPGGSLGLSCTTSGFNFNDYFMNWVRQAPGKGLEWVAQIRNGNYDYAAYYAESLEGRVTISRDDSKSSVNLQVSSLRAEDTAIYYCTSYYYDGHFDYFDNWGHGVMVTVSS
VL: DIKVTQSPSFLSASVGDRATINCKASQNLNKYLNWYQQKPGEPPKLLIYNTDNLYTGIPSRFSGSGSVADFTLTISGLQPEDVATYFCMQHNVRRTFGGGTKLELKR
notes: Human IgG4 S228P and human kappa; also called 17C5C2 chimeric
B2: LYV391 (chimeric antibody, 36G7B8 in hG4SP / human kappa) (antibody, human IgG4 S228P, kappa, V domains shown)
VH: QVQLQQPGAELVRPGASVKLSCKASGYIFISYWIHWLKQRPGRGLEWIGRIDPNNGGTKYNEKFRYKASLTVDKSSSTAYMQLSSLTSEDSAVYYCTKGVITTLVAGDYWGQGTTLTVSS
VL: DVVMTQIPLSLPVSIGDQASISCRSSQSLVYSYGNTYLHWFLQKPGQSPKLLIYNVSNRFSGVPDRFSGSGSGTDFTLRISRVEAEDLGVYFCSQGTHVPWTFGGGTKLEIKR
notes: Human IgG4 S228P and human kappa; also called 36G7B8 chimeric; 366788 (LYV391)
B3: LYV378 (chimeric antibody, 9F12D9 in human IgG4SP / human kappa) (antibody, V domains shown)
VH: EVHLVESGGGLVQPGRSLKLSCAASGFTFTNYGLHWIRQAPTKGLEWVASISPSGGVTYYRDSVKGRFTISRDNGKTTLHLQMDSLRSEDTATYYCALPFLGWGGANWIAHWGQGTLVTVSS
VL: DIQMTQSPASLSASLGETVSIECLASEDISNDLAWYQQKSGKSPQLLIYFVDRLLDGVPSRFSGSGSGTRHSLKISGMQPEDEADYFCQQSYKYPPTFGGGTKLELKR
notes: Human IgG4 S228P and human kappa; elsewhere it is 9F12D9; also called 9F12D9 chimeric; 9F12D8
B4: LYV376 (chimeric antibody, 19G6D6 in human IgG4SP / human kappa) (antibody, V domains shown)
VH: EVQLQQSGPELVKPGASVKIPCKASGYTFTDYNMDWVKQSHGKSLEWIGDINPNNDISIYNQKFRGKATLTVDKSSSTAYMELRSLTSEDTAVYYCARRFAYWGQGTLVTVSA
VL: EIVLTQSPTTMAASPGEKITITCSASSSISSNYLHWYQQKPGSSPKVLIYRTSNLASGVPVRFSGSGSGTSYSLTIGTMEAEDVATYYCQQGSSIPYTFGGGTKLEIKR
notes: also called 19G6D6 chimeric; 1966D6 (LYV376)
B5: LYV377 (chimeric antibody, 13F1A7 in human IgG4SP / human kappa) (antibody, V domains shown)
VH: EVQILETGGGLVKPGGSLRLSCATSGFNFNDSFMNWVRQAPGKGLEWVAQIRNKNYNYATYYTESLEGRVTISRDDSKSRVYLQVSSLRAEDSAVYYCTSYYYDGFADYFDYWGQGVMVTVSS
VL: DIKMTQSPSFLSASVGDSVTFTCKASQNIYIYLNWYQQKFGEAPKLLIYNTNNLQTGIPSRFSGSESGTVFTLTISSLQPEDVATYFCLQHSSRRTFGGGTKLELKR
notes: Human IgG4 S228P and human kappa; also called 13F1A7 chimeric; LTV377

Target: monkey CD40 protein (plate coat of the ELISA of Fig. 5) (cynomolgus monkey per paragraph 23; rhesus …)
Assay: ELISA on monkey CD40 protein coated on the plate, anti-human IgG-HRP, A450

| EC50 (read off the curve) [ng/mL] | Binder |
| --- | --- |
| ~5 | B1 |

Target: T1, human CD40-His tag protein (Sino Biological Inc. Cat #10239-H08E) (human, UniProt P25942 21-193)
T1 construct: also called human CD40 protein; CD40 protein; not shown: His tag
Assay: ELISA, plate coated with human CD40-His at 1 ug/ml, anti-human IgG-HRP, A450
Procedure: CD40 protein (human CD40-His tag protein (Sino Biological Inc. Cat #10239-H08E) or rhesus monkey CD40-His (Sino Biological Inc. Cat #90097-C02H) was diluted in PBS to 1 ug/ml and used to coat an ELISA plate (Corning, Cat #9018, high binding) at a concentration of 50 ul/well. The plate was incubated overnight at 4° C. The plate was then decanted and washed with PBS-T, and 200 μl/well assay diluent (1×PBS/1% BSA/0.05% Tween-20/0.05% proclin 300) was added. After a 3 hour incubation at room temperature, the plate was washed with PBS-T three times. The testing antibodies were diluted in assay diluent to 0, 0.000003, 0.00003, 0.0003, 0.003, 0.03, and 0.3 ug/ml or approximately 0, 0.00002, 0.0002, 0.002, 0.02, 0.2 and 2 nM and then added to the plate (50 ul/well). The plate was incubated for one hour at 37° C. and then washed three times with PBS-T. Anti-human IgG-HRP conjugate (Bethyl Cat #A80-319P) at a 1:10,000 dilution was added to the plate (100 ul/well). The plate was incubated for 0.5 hour at 37° C., followed by washing with PBS-T three times. The TMB substrate solution was added (100 ul/well). The color was allowed to develop for 8 minutes before it was stopped with 100 ul/well 2N H₂SO₄. Absorbance at 450 nm was determined with an ELISA reader.

T1 sequence (P25942 21-193 limits assumed, stated change not applied): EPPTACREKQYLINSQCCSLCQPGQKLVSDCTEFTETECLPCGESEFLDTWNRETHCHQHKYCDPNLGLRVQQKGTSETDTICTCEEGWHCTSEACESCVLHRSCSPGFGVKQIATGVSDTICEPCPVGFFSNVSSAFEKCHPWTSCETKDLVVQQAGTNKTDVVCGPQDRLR

| EC50 (read off the curve) [ng/mL] | Binder |
| --- | --- |
| ~20 | B1 |
| ~20 | B2 |
| ~4 | B3 |
| ~3 | B4 |
| ~4 | B5 |
